Assay results published in paper PMC4980550, “Structural Basis for Plexin Activation and Regulation” (Neuron, 2016).
Where “and” joins values, the source holds several entries; their conditions need not be identical. Equal values may be shown once. Blank lines part the entries; values can stand above or below the molecule they belong to.

Tests used:
[1] = molecular target: PlxnA1_(1-10), full extracellular segment of mouse PlxnA1 (domains 1-10) (mouse) (UniProt P70206); assay: AUC; sedimentation velocity, 40,000 rpm, absorbance at 280 nm, c(s) analysis; protein at 28.1 μM (4 mg/ml)
[2] = molecular target: PlxnA2 extracellular-transmembrane segment fused to mTFP1 (donor) or mVenus (acceptor) (mouse); assay: FRET or BRET; FRET-FLIM in live COS-7 cells co-expressing mTFP1- and mVenus-fused PlxnA2; before Sema6A stimulation
[3] = molecular target: the molecule itself; assay: crystal structure; crystals of full extracellular segments; intermolecular plexin-plexin interface in the crystal; 4 to 10 Å
[4] = molecular target: T1, PlxnA2_(1-2), PlxnA2 sema-PSI1 domains (mouse, UniProt P70207 31-561); assay: SPR; equilibrium experiments, Biacore T200, 25°C, 10 mM HEPES pH 7.5, 150 mM NaCl, 0.005% Tween 20; biotinylated PlxnA2_(4-5) (wild type or mutant) on streptavidin chip, PlxnA2_(1-2) as analyte; 1:1 Langmuir model; details: both partners purified
T1 construct: Plexin-A2, mouse, sema and PSI1 domains (domains 1-2)
T1 sequence: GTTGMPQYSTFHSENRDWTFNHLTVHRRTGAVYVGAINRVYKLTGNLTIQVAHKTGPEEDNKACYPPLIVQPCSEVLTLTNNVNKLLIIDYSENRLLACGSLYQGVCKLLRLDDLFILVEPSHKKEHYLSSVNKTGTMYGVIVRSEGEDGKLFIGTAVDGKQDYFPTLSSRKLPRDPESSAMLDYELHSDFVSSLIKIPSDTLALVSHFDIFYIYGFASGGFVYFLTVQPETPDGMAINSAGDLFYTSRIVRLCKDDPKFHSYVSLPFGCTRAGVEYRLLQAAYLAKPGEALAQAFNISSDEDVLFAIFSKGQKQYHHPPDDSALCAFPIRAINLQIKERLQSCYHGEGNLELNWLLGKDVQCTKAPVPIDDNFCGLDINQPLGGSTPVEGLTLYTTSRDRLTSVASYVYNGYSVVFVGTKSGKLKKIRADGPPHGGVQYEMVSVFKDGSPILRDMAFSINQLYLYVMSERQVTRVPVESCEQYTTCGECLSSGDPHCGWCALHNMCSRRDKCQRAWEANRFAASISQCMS

average fraction of interacting donor (fD) [2]: 0.11
Molecule: PlxnA2 extracellular-transmembrane segment fused to mTFP1 (donor) or mVenus (acceptor) (receptor)

Kd [4]: 20.9 ± 0.38 µM
B2: PlxnA2_(4-5), PlxnA2 PSI2-IPT2 domains (domain or fragment, mouse)
chain: NCSAHQLCLSCVNSAFRCHWCKYRNLCTHDPTTCSFQEGRINVSEDCPQLVPTEEILIPVGEVKPITLKARNLPQPQSGQRGYECVLSIQGAVHRVPALRFNSSSVQCQNSSYQYDGMDISNLAVDFAVVWNGNFIIDNPQDLKVHLYK
modifications: enzymatically biotinylated with BirA via an engineered C-terminal tag
notes: Plexin-A2, mouse, PSI2 and IPT2 domains (domains 4-5); The crystallised PlxnA2_(4-5) (PDB 5L74) was made in HEK293S cells; also called wild-type PlxnA2_(4-5); not shown: biotinylation tag (BirA), C-terminal, kept

Continued, molecule first:

Molecule: PlxnA1_(1-10), full extracellular segment of mouse PlxnA1 (domains 1-10) (from UniProt P70206 28-1242) (domain or fragment)
stoichiometry N [1]: 2 and 3 and 4

B1: PlxnA4_(1-10), full extracellular segment of mouse PlxnA4 (domain or fragment, UniProt Q80UG2 24-1236, looked up)
chain: TLLPRQPPQLSQKPSFVTFRGEPAEGFNHLVVDERTGHIYLGAVNRIYKLSSDLKVLVTHQTGPDEDNPKCYPPRIVQTCNEPLASTNNVNKMLLIDYKENRLIACGSLYQGICKLLRLEDLFKLGEPFHKKEHYLSGVNESGSVFGVIVSYSNFDDKLFIATAVDGKPEYFPTISSRKLTKNSEADGMFAYVFHDEFVASMIKIPSDTFTVIPDFDIYYVYGFSSGNFVYFLTLQPEMVSPPGSTTKEQVYTSKLVRLCKEDTAFNSYVEVPIGCERNGVEYRLLQAAYLSKAGAVLGRTLGVRPDDDLLFTVFSKGQKRKMKSLDESALCIFILKQINDRIKDRLQSCYRGEGTLDLAWLKVKDIPCSSALLTIDDNFCGLDMNAPLGVSEMVRGIPVFTEDRDRMTSVIAYVYKNHSLAFVGTKSGKLKKIRVDGPKGNALQYETVQVVDSGPVLRDMAFSKDHEQLYIMSERQLTRVPVESCGQYRSCGECLGSGDPHCGWCVLHNTCTRKERCERSREPRRFASEMKQCVRLTVHPNNISVSQYNVLLVLETYNVPELSAGVNCTFEDLSEMDGLVIGNQIQCYSPAAKEVPRIITENGDHHVVQLQLKSKETGMTFASTSFVFYNCSVHNSCLSCVESPYRCHWCKYRHVCTHDPNTCSFQEGRVKLPEDCPQLLRVDKILVPVEVIKPITLKAKNLPQPQSGQRGYECILNIQGIEQRVPALRFNSSSVQCQNTSYSYEGMEINNLPVELTVVWNGHFNIDNPAQNKVYLYKCGAMRESCGLCLKADPDFECGWCQSPGQCTLRQHCPAHESRWLELSGANSKCTNPRITEIIPVTGPREGGTKVTIRGENLGLEFRDIASHVKVAGVECSPLVDGYIPAEQIVCEMGEAKPSQHAGFVEICVAVCRPEFMARSSQLYYFMTLTLADLKPNRGPMSGGTQVTITGTNLNAGSNVVVMFGSQPCLFHRRSPSYIICNTTSSEEVLDMKVTVQVDRARIRQDLVFQYVEDPTIVRIEPEWSIVSGNTPIAVWGTHLDLIQNPQIRAKHGGKEHINICEVLNATEMTCQAPALALGPDHQSDLTERPEEFGFILDNVQSLLILNKTNFTYYPNPVFEAFSPSGILELKPGTPIILKGKNLIPPVAGGNVKLNYTVLVGEKPCTVTVSDVQLLCESPNLIGRHKVMARVGGMEYSPGMVYIAPDSPLSLP
notes: Plexin-A4, mouse, full extracellular segment (domains 1-10); also called PlxnA4 full ectodomain
binding result [3]: binds

B3: PlxnA2_(1-10), full extracellular segment of mouse PlxnA2 (domain or fragment, UniProt P70207 35-1237, looked up)
chain: MPQYSTFHSENRDWTFNHLTVHRRTGAVYVGAINRVYKLTGNLTIQVAHKTGPEEDNKACYPPLIVQPCSEVLTLTNNVNKLLIIDYSENRLLACGSLYQGVCKLLRLDDLFILVEPSHKKEHYLSSVNKTGTMYGVIVRSEGEDGKLFIGTAVDGKQDYFPTLSSRKLPRDPESSAMLDYELHSDFVSSLIKIPSDTLALVSHFDIFYIYGFASGGFVYFLTVQPETPDGMAINSAGDLFYTSRIVRLCKDDPKFHSYVSLPFGCTRAGVEYRLLQAAYLAKPGEALAQAFNISSDEDVLFAIFSKGQKQYHHPPDDSALCAFPIRAINLQIKERLQSCYHGEGNLELNWLLGKDVQCTKAPVPIDDNFCGLDINQPLGGSTPVEGLTLYTTSRDRLTSVASYVYNGYSVVFVGTKSGKLKKIRADGPPHGGVQYEMVSVFKDGSPILRDMAFSINQLYLYVMSERQVTRVPVESCEQYTTCGECLSSGDPHCGWCALHNMCSRRDKCQRAWEANRFAASISQCMSLEVHPNSISVSDHSRLLSLVVNDAPNLSEGIACAFGNLTEVEGQVSGSQVICISPGPKDVPVIPLDQDWFGLELQLRSKETGKIFVSTEFKFYNCSAHQLCLSCVNSAFRCHWCKYRNLCTHDPTTCSFQEGRINVSEDCPQLVPTEEILIPVGEVKPITLKARNLPQPQSGQRGYECVLSIQGAVHRVPALRFNSSSVQCQNSSYQYDGMDISNLAVDFAVVWNGNFIIDNPQDLKVHLYKCAAQRESCGLCLKADHKFECGWCSGERRCTLHQHCPSTSSPWLDWSSHNVKCSNPQITEILTVSGPPEGGTRVTIHGVNLGLDFSEIAHHVQVAGVPCTPIPGEYIIAEQIVCEMGHAVIGTTSGPVRLCIGECKPEFMTKSHQQYTFVNPSVLSLSPIRGPESGGTMVTITGHYLGAGSSVAVYLGNQTCEFYGRSMNEIVCVSPPSSNGLGPVPVSVSVDRARVDSSLQFEYIDDPRVQRIEPEWSITSGHTPLTITGFNLDVIQEPRVRVKFNGKESVNVCTVVNTTTLTCLAPSLTSDYRPGLDTVERPDEFGFLFNNVQSLLIYNDTKFIYYPNPTFELLSPTGILDQKPGSPIILKGKNLCPPASGGAKLNYTVMIGETPCTVTVSETQLLCEPPNLTGQHKVMVHVGGMVFSPGSVSVISDSLLTLP
notes: Plexin-A2, mouse, full extracellular segment (domains 1-10); also called PlxnA2 full ectodomain
binding result [3]: binds
